Values of other authors in publication PMC6784060.

Molecular target: Beclin-1 BH3 (Homo sapiens) (UniProt Q14457)
UniProt Q14457, sequence (Q14457 107-127): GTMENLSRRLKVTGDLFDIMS

Substance: Bcl-xL (from UniProt Q07817)
- Kd: 1700 nM
